From article doi:10.1101/2024.01.29.577677

target: human ACE2 (human) (UniProt Q9BYF1); assay: SPR

Substance | fold increase in affinity relative to BA.2.86 RBD
BA.2.86-D450N RBD (domain or fragment) | 3 fold
BA.2.86-H445V RBD (domain or fragment) | 3 fold
BA.2.86-P486F RBD (domain or fragment) | 3 fold
